According to US20170015742A1 (published 2017):

Columns and labels:
[1] = molecular target: T1, recombinant human PDGF-BB (human, UniProt P01127 82-190); assay: cell-based or functional assay
[2] = molecular target: T2, recombinant human VEGF165 (human, UniProt P15692 207-395); assay: cell-based or functional assay
[3] = molecular target: T2, recombinant human VEGF165; assay: competition ELISA: DVD-Ig titrated against biotinylated hVEGF165 binding to coated hVEGFR2-Fc
Experimental: To identify molecules that could block the binding of hVEGF₁₆₅ to the hVEGF-R2 (KDR/Flk-1) receptor, a competition ELISA was performed. […] Plates were then washed four times with wash buffer (TBS, 0.05% Tween-20) and blocked with Superblock blocking buffer (Thermo Scientific, cat#37535). […] The pre-incubated sample/hVEGF₁₆₅ complex was added to the coated plate at 50 μL in duplicate and incubated for 30 minutes at 25° C. with shaking. Following incubation, plates were washed four times with wash buffer. Streptavidin-polyHRP-40 (Fitzgerald cal#65r-s104phrp) was diluted in assay diluent (10% Superblock containing 0.05% surfactamps) and added to plates (50 μL) for 45 minutes at 25° C. with shaking. Plates were washed four times with wash buffer and developed with the addition of Enhanced K-blue TMB substrate (Neogen cat#308177). The reaction was stopped with 2N sulfuric acid (VWR, cat# BDH3500-1) and the absorbance was read at 450 nm-570 nm. A decrease in observed optical density indicates the test molecule is blocking the hVEGF₁₆₅ binding to the hVEGF-R2-Fc. Data was analyzed using Softmax Pro 4.8 software and IC₅₀ values calculated using a sigmoidal dose response (variable slope) fit in GraphPad Prism 5.

[4] = molecular target: T1, recombinant human PDGF-BB; assay: competition ELISA: DVD-Ig titrated against biotinylated hPDGF-BB binding to coated hPDGF-Rbeta-Fc
Experimental: Plates were then washed four times with wash buffer (TBS, 0.05% Tween-20) and blocked with Superblock blocking buffer (Thermo Scientific, cat#37535). During the blocking step, supernatants, antibodies, benchmark compounds or DVD-Ig were diluted in assay diluent (10% Superblock containing 0.05% surfactamps) and an eight point titration of each sample molecule was performed. […] Following incubation, plates were washed four times with wash buffer. Detection reagent Streptavidin-polyHRP-40 (Fitzgerald, cat#65r-s104phrp) was diluted in assay diluent and added to plates (50 μL) for 45 minutes at 25° C. with shaking. Plates were washed four times with wash buffer and developed with the addition of Enhanced K-blue TMB substrate (Neogen, cat#308177). The reaction was stopped with 2N sulfuric acid (VWR, cat# BDH3500-1) and the absorbance was read at 450 nm-570 nm. […] Data was analyzed using Softmax Pro 4.8 software and IC₅₀ values calculated using a sigmoidal dose response (variable slope) fit in GraphPad Prism 5.

[5] = molecular target: T3, human VEGF 165 (PR-1350437) (human, UniProt P15692 207-395); assay: SPR (Biacore), binding protein captured by anti-human Fc, antigen injected
T3 construct: Purified recombinant protein; also called hVEGF165
Experimental: (§1) Unreacted moieties on the biosensor surface were blocked with ethanolamine. For kinetic analysis, rate equations derived from the 1:1 Langmuir binding model were fitted simultaneously to multiple antigen injections (using global fit analysis) with the use of Scrubber 2 (BioLogic Software), Biacore Biaevaluation 4.0.1 software or Biacore T100 Evaluation software. Purified antibodies or DVD-Ig molecules were diluted in running buffer for capture across goat anti-human Fc reaction surfaces. Antibodies or DVD-Ig molecules to be captured as a ligand (1 μg/ml) were injected over reaction matrices at a flow rate of 10 μl/minute. During the assay, all measurements were referenced against the capture surface alone (i.e., with no captured antibody or DVD-Ig molecule). […] The equilibrium dissociation constant KD (M) of the reaction between antibodies and the target antigen was then calculated from the kinetic rate constants by the following formula: KD=Koff/Kₒₙ. Binding was recorded as a function of time and kinetic rate constants were calculated. In this assay, on-rates as fast as 10⁶M⁻¹s⁻¹ and off-rates as slow as 10⁻⁶ s⁻¹ could be measured.

[6] = molecular target: T4, mouse PDGF-B (PR-1577160) (mouse, UniProt P31240 82-190); assay: as above
T4 construct: Recombinant; also called mouse PDGF-BB; mPDGF-BB
T4 sequence (P31240 82-190 limits assumed): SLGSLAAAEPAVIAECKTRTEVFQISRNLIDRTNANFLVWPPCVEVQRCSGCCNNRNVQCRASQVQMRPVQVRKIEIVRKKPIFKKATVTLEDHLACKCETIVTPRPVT
Experimental: as §1

[7] = molecular target: T5, human PDGF-B (PR-1373790) (human, UniProt P01127 82-190); assay: as above
T5 construct: Soluble recombinant PDGF-BB homodimer; also called human PDGF-BB; hPDGF-BB
Experimental: as §1

[8] = molecular target: T6, human VEGF 111 (PR-1520687) (human, UniProt P15692-10 27-137); assay: as above
T6 construct: also called hVEGF111
T6 sequence (looked up): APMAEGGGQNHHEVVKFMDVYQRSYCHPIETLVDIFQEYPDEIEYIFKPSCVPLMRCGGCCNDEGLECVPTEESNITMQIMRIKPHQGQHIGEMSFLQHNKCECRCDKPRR
Experimental: as §1

[9] = molecular target: T7, human VEGF 121 (PR-1515941) (human, UniProt P15692 207-395); assay: as above
T7 construct: Recombinant isoform; also called hVEGF121
T7 sequence: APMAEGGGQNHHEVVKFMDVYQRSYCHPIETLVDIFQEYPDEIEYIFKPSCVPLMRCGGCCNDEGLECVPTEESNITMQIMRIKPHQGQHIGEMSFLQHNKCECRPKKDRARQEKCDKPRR
Experimental: as §1

cyno PDGF-B (PR-1575400) = molecular target: T8, cyno PDGF-B (PR-1575400) (cynomolgus monkey, UniProt P01127 82-190 (human entry), limits assumed); assay: as above
T8 construct: Recombinant; also called cynomolgus monkey PDGF-BB; cynoPDGF-BB
T8 chain: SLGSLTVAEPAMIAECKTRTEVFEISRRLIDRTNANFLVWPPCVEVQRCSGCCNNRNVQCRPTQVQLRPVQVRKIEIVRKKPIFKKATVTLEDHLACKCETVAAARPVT
Experimental: as §1

B1: 4G8.3-GS(9)-9E8.4 (g) DVD-Ig (PR-1572102) (bispecific antibody, human IgG1, kappa, L234A L235A)
heavy: EVQLVQSGSELKKPGASVKVSCKASGYTFTNYGMYWVRQAPGQGLEWMGWINTETGKPTYADDFKGRFVFSLDTSVSTAYLQISSLKAEDTAVYYCARTNYYYRSYIFYFDYWGQGTMVTVSSGGGGSGGGGSEVTLRESGPALVKPTQTLTLTCTFSGFSLSTYGMGVGWIRQPPGKALEWLANIWWDDDKYYNPSLKNRLTISKDTSKNQVVLTMTNMDPVDTATYYCARIESIGTTYSFDYWGQGTMVTVSSASTKGPSVFPLAPSSKSTSGGTAALGCLVKDYFPEPVTVSWNSGALTSGVHTFPAVLQSSGLYSLSSVVTVPSSSLGTQTYICNVNHKPSNTKVDKKVEPKSCDKTHTCPPCPAPEAAGGPSVFLFPPKPKDTLMISRTPEVTCVVVDVSHEDPEVKFNWYVDGVEVHNAKTKPREEQYNSTYRVVSVLTVLHQDWLNGKEYKCKVSNKALPAPIEKTISKAKGQPREPQVYTLPPSREEMTKNQVSLTCLVKGFYPSDIAVEWESNGQPENNYKTTPPVLDSDGSFFLYSKLTVDKSRWQQGNVFSCSVMHEALHNAYTQKSLSLSPGK
light: DTVLTQSPATLSLSPGERATLSCRASESVSTHMHWYQQKPGQAPRLLIYGASNLESGVPARFSGSGSGTDFTLTISSLEPEDFAVYFCQQSWNDPFTFGQGTKLEIKRGGSGGGGSGEFVLTQSPGTLSLSPGERATLSCERSSGDIGDSYVSWYQQKPGQAPRLVIYADDQRPSGIPDRFSGSGSGTDFTLTISRLEPEDFAVYYCQSYDINIDIVFGGGTKVEIKRTVAAPSVFIFPPSDEQLKSGTASVVCLLNNFYPREAKVQWKVDNALQSGNSQESVTEQDSKDSTYSLSSTLTLSKADYEKHKVYACEVTHQGLSSPVTKSFNRGEC
notes: DVD-Ig, outer hBDB-4G8.3 (VEGF), inner hBDI-9E8.4 (PDGF); IgG1 L234A, L235A, H435A / kappa; also called 4G8.3-GS-9E8.4 (g); DVD-Ig-1
NIH-3T3 hPDGF-BB Potency IC50 [1]: 0.528 nM | HMVEC-d hVEGF165 Potency IC50 [2]: 0.417 nM | IC50 [3]: 0.157 nM | IC50 [4]: > 5 nM

B2: 9E10.1-GS-33675 anti-VEGF/anti-PDGF DVD-Ig (PR-1610561) (bispecific antibody, human IgG1, kappa, L234A L235A)
heavy: EIQLVQSGSELKKPGASVKVSCKASGYTFTNYGMYWVKQAPGQGLEYMGWIDTETGRPTYADDFKGRFVFSLDTSVSTAYLQISSLKAEDTAVYFCARWSGDTTGIRGPWFAYWGQGTLVTVSSGGGGSGGGGSEVTLRESGPALVKPTQTLTLTCTFSGFSLSTYGMGVGWIRQPPGKALEWLANIWWDDDKYYNPSLKNRLTISKDTSKNQVVLTMTNMDPVDTATYYCARIESSGPKYSFDYWGQGTMVTVSSASTKGPSVFPLAPSSKSTSGGTAALGCLVKDYFPEPVTVSWNSGALTSGVHTFPAVLQSSGLYSLSSVVTVPSSSLGTQTYICNVNHKPSNTKVDKKVEPKSCDKTHTCPPCPAPEAAGGPSVFLFPPKPKDTLMISRTPEVTCVVVDVSHEDPEVKFNWYVDGVEVHNAKTKPREEQYNSTYRVVSVLTVLHQDWLNGKEYKCKVSNKALPAPIEKTISKAKGQPREPQVYTLPPSREEMTKNQVSLTCLVKGFYPSDIAVEWESNGQPENNYKTTPPVLDSDGSFFLYSKLTVDKSRWQQGNVFSCSVMHEALHNAYTQKSLSLSPGK
light: DIRMTQSPSSLSASVGDRVTIECLASEDIYSDLAWYQQKPGKSPKLLIYNANGLQNGVPSRFSGSGSGTDYSLTISSLQPEDVATYFCQQYNYFPGTFGQGTKLEIKGGSGGGGSGGEIVLTQSPGTLSLSPGERATLSCRASSGSIWYSFVSWYQQKPGQAPRLLIYADDQRASGIPDRFSGSGSGTDFTLTISRLEPEDFAVYYCQSYGINIDVVFGGGTKVEIKRTVAAPSVFIFPPSDEQLKSGTASVVCLLNNFYPREAKVQWKVDNALQSGNSQESVTEQDSKDSTYSLSSTLTLSKADYEKHKVYACEVTHQGLSSPVTKSFNRGEC
notes: DVD-Ig: outer domain hBEW-9E10.1 (VEGF), inner domain CL-33675 (PDGF), linkers GS-H10 / GS-L10(dR), human IgG1 L234A, L235A, H435A, kappa; Lot 2213329; also called hu VEGF 9E10.1-GS-hu PDGF 33675 [hu IgG1/k]; LALA H435A
Kd [5]: 0.065 nM | koff [5]: 3.4e-05 s⁻¹ | kon [5]: 520000 M⁻¹ s⁻¹ | Kd [6]: ≤ 0.0052 nM | koff [6]: 5.2e-05 s⁻¹ | kon [6]: ≥ 1e+07 M⁻¹ s⁻¹ | Kd [7]: ≤ 0.0052 nM | koff [7]: 5.2e-05 s⁻¹ | kon [7]: ≥ 1e+07 M⁻¹ s⁻¹ | Kd [8]: 0.29 nM | koff [8]: 4.3e-05 s⁻¹ | kon [8]: 150000 M⁻¹ s⁻¹ | Kd [9]: 0.23 nM | koff [9]: 4.1e-05 s⁻¹ | kon [9]: 180000 M⁻¹ s⁻¹ | Kd (cyno PDGF-B (PR-1575400)): ≤ 0.00081 nM | koff (cyno PDGF-B (PR-1575400)): 8.1e-06 s⁻¹ | kon (cyno PDGF-B (PR-1575400)): ≥ 1e+07 M⁻¹ s⁻¹

B3: 4G8.3-SL-9E8.4 (g) DVD-Ig (PR-1572105) (bispecific antibody, human IgG1, kappa, L234A L235A)
heavy: EVQLVQSGSELKKPGASVKVSCKASGYTFTNYGMYWVRQAPGQGLEWMGWINTETGKPTYADDFKGRFVFSLDTSVSTAYLQISSLKAEDTAVYYCARTNYYYRSYIFYFDYWGQGTMVTVSSASTKGPEVTLRESGPALVKPTQTLTLTCTFSGFSLSTYGMGVGWIRQPPGKALEWLANIWWDDDKYYNPSLKNRLTISKDTSKNQVVLTMTNMDPVDTATYYCARIESIGTTYSFDYWGQGTMVTVSSASTKGPSVFPLAPSSKSTSGGTAALGCLVKDYFPEPVTVSWNSGALTSGVHTFPAVLQSSGLYSLSSVVTVPSSSLGTQTYICNVNHKPSNTKVDKKVEPKSCDKTHTCPPCPAPEAAGGPSVFLFPPKPKDTLMISRTPEVTCVVVDVSHEDPEVKFNWYVDGVEVHNAKTKPREEQYNSTYRVVSVLTVLHQDWLNGKEYKCKVSNKALPAPIEKTISKAKGQPREPQVYTLPPSREEMTKNQVSLTCLVKGFYPSDIAVEWESNGQPENNYKTTPPVLDSDGSFFLYSKLTVDKSRWQQGNVFSCSVMHEALHNAYTQKSLSLSPGK
light: DTVLTQSPATLSLSPGERATLSCRASESVSTHMHWYQQKPGQAPRLLIYGASNLESGVPARFSGSGSGTDFTLTISSLEPEDFAVYFCQQSWNDPFTFGQGTKLEIKRTVAAPSVFIFPPEFVLTQSPGTLSLSPGERATLSCERSSGDIGDSYVSWYQQKPGQAPRLVIYADDQRPSGIPDRFSGSGSGTDFTLTISRLEPEDFAVYYCQSYDINIDIVFGGGTKVEIKRTVAAPSVFIFPPSDEQLKSGTASVVCLLNNFYPREAKVQWKVDNALQSGNSQESVTEQDSKDSTYSLSSTLTLSKADYEKHKVYACEVTHQGLSSPVTKSFNRGEC
notes: DVD-Ig, outer hBDB-4G8.3 (VEGF), inner hBDI-9E8.4 (PDGF); IgG1 L234A, L235A, H435A / kappa; also called DVD-Ig-3
NIH-3T3 hPDGF-BB Potency IC50 [1]: 0.29 nM | HMVEC-d hVEGF165 Potency IC50 [2]: 0.347 nM | IC50 [3]: 0.111 nM | IC50 [4]: > 5 nM
